Source: patent publication US20220323495A1 (NATIONAL RESEARCH COUNCIL OF CANADA, published 2022)

T1: EGFRvIII amino acid residues 15 to 37 with Cys16 to Ala mutation, yeast-displayed (human, not fully specified)
T1 construct: The entry already carries the mutation
T1 peptide: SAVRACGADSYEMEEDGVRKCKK

T2: EGFRvIII amino acid residues 15 to 37 with Lys34 to Ala mutation, yeast-displayed (human, not fully specified)
T2 construct: The entry already carries the mutation
T2 peptide: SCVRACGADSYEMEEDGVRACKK

T3: EGFRvIII amino acid residues 15 to 37 with Glu28 to Ala mutation, yeast-displayed (human, not fully specified)
T3 construct: The entry already carries the mutation
T3 peptide: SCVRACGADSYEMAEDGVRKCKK

T4: EGFRvIII amino acid residues 15 to 37 with Asp30 to Ala mutation, yeast-displayed (human, not fully specified)
T4 construct: The entry already carries the mutation
T4 peptide: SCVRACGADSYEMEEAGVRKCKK

T5: EGFRvIII amino acid residues 15 to 37 with Ser24 to Ala mutation, yeast-displayed (human, not fully specified)
T5 construct: The entry already carries the mutation
T5 peptide: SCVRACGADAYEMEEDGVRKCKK

T6: EGFRvIII amino acid residues 15 to 37 with Arg33 to Ala mutation, yeast-displayed (human, not fully specified)
T6 construct: The entry already carries the mutation
T6 peptide: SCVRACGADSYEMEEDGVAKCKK

T7: EGFRvIII amino acid residues 15 to 37 with Met27 to Ala mutation, yeast-displayed (human, not fully specified)
T7 construct: The entry already carries the mutation
T7 peptide: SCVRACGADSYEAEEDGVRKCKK

T8: EGFRvIII amino acid residues 15 to 37 with Lys37 to Ala mutation, yeast-displayed (human, not fully specified)
T8 construct: The entry already carries the mutation
T8 peptide: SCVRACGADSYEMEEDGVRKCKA

T9: EGFRvIII amino acid residues 15 to 37 with Ser15 to Ala mutation, yeast-displayed (human, not fully specified)
T9 construct: The entry already carries the mutation
T9 peptide: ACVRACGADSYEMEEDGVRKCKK

T10: EGFRvIII amino acid residues 15 to 37 with Lys36 to Ala mutation, yeast-displayed (human, not fully specified)
T10 construct: The entry already carries the mutation
T10 peptide: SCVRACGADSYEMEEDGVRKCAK

T11: EGFRvIII amino acid residues 15 to 37 with Glu29 to Ala mutation, yeast-displayed (human, not fully specified)
T11 construct: The entry already carries the mutation
T11 peptide: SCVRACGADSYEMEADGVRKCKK

T12: EGFRvIII amino acid residues 15 to 37 with Val32 to Ala mutation, yeast-displayed (human, not fully specified)
T12 construct: The entry already carries the mutation
T12 peptide: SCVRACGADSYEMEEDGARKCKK

B1: F265-5B7 anti-EGFRvIII monoclonal antibody (antibody, V domains shown)
VH: QIQLVQSGPELKKPGETVMISCKASGYSFTNYGMNWVKQAPEKDLKWMGWINTYTGESRYVDEFKGRFAFSLETSVSIVYLKINNLKNEDMATYFCARGPNFDVWGTGTTVTVSS
VL: not shown
notes: Mouse hybridoma IgG, tested as supernatant or Protein G purified mAb; also called 5B7-2
B2: F269-3D12 anti-EGFRvIII monoclonal antibody (antibody, V domains shown)
VH: EVQLQQSGPELVKPGSSVRISCKASGYTFTDYNMDWVKQSHGKSLEWIGTINPNNGGTSYNQKFKGKATLTVDKSSSTAYMELRSLTSEDSAVYYCARVRQLGLWFAYWGQGTLVTVSA
VL: EIVLTQSPALMAASPGEKVTITCSVSSSISSSNLHWYQQKSETSPKPWIYGTSNLASGVPVRFSGSGSGTSYSLTISSMEAEDAATYYCQQWSSYPLTFGSGTKLEIK
notes: Mouse hybridoma IgG, tested as supernatant or Protein G purified mAb; also called 3D12-2

Assays:
Assay in all cases: flow cytometry on yeast displaying the Ala-mutated 15-37 fragment; normalized to Myc-tag; wild-type fragment = 100%
[1] = target: T1, EGFRvIII amino acid residues 15 to 37 …
Source text: (§1) Assessment of the binding of anti-EGFRvIII monoclonal antibodies to the fusion proteins expressed on yeast cell surface was done by flow cytometry analysis. Yeast cells were labeled with both the anti-EGFRvIII monoclonal antibody and chicken anti-Myc antibody the latter being used to monitor the level of expression of the fusion protein. Following a wash step, binding of the primary antibodies is probed by a two-color indirect fluorescence labeling using a specific mouse and chicken secondary antibodies for each of the primary antibody respectively.
(§2) To further characterize mAb epitopes within the EGFRvIII 15-37 region, an alanine scan of this region was performed, and modified fragments were expressed at the surface of the yeast. […] The resulting DNAs were expressed at the surface of the yeast and each anti-EGFRvIII mAbs was tested on the corresponding yeast mutant strain by flow cytometry analysis. The original Ala19 and Ala22 were not mutated. Thus, this assay determined the contribution of each amino acid(s) in mAb binding in comparison to the original wild-type fragment (SEQ ID NO:5) which is attributed the value of 100%.

[2] = target: T2, EGFRvIII amino acid residues 15 to 37 …
Source text: as §1, §2

[3] = target: T3, EGFRvIII amino acid residues 15 to 37 …
Source text: as §1, §2

[4] = target: T4, EGFRvIII amino acid residues 15 to 37 …
Source text: as §1, §2

[5] = target: T5, EGFRvIII amino acid residues 15 to 37 …
Source text: as §1, §2

[6] = target: T6, EGFRvIII amino acid residues 15 to 37 …
Source text: as §1, §2

[7] = target: T7, EGFRvIII amino acid residues 15 to 37 …
Source text: as §1, §2

[8] = target: T8, EGFRvIII amino acid residues 15 to 37 …
Source text: as §1, §2

[9] = target: T9, EGFRvIII amino acid residues 15 to 37 …
Source text: as §1, §2

[10] = target: T10, EGFRvIII amino acid residues 15 to 37 …
Source text: as §1, §2

[11] = target: T11, EGFRvIII amino acid residues 15 to 37 …
Source text: as §1, §2

[12] = target: T12, EGFRvIII amino acid residues 15 to 37 …
Source text: as §1, §2

Binder | % of binding compared to the wild-type sequence [1] [%] | % of binding compared to the wild-type sequence [2] [%] | % of binding compared to the wild-type sequence [3] [%] | % of binding compared to the wild-type sequence [4] [%] | % of binding compared to the wild-type sequence [5] [%] | % of binding compared to the wild-type sequence [6] [%] | % of binding compared to the wild-type sequence [7] [%] | % of binding compared to the wild-type sequence [8] [%] | % of binding compared to the wild-type sequence [9] [%] | % of binding compared to the wild-type sequence [10] [%] | % of binding compared to the wild-type sequence [11] [%] | % of binding compared to the wild-type sequence [12] [%]
B1 | 240 | 193 | 78.5 | 106 | 230 | 95.8 | 111 | 143 | 91.6 | 87.2 | 110 | 101
B2 | 171 | 137 | 71 | 78.5 | 233 | 22.1 | 75.3 | 162 | 90.2 | 95.1 | 47.7 | 93.8
